Measured values from patent US20110190218A1 (KARLSRUHE INSTITUTE OF TECHNOLOGY, published 2011).

Target: GST-Bag-1L-(202-345) (human, UniProt P08515 1-218 = GST; Q99933 202-345)
Experiment: GST pull-down from lysates of Bag-1L-transfected cells, immunoblot with Bag-1L specific antibody

B1: Bag-1L (in lysates from Bag-1L-transfected cells) (other)
chain: MAQRGGARRPRGDRERLGSRLRALRPGREPRQSEPPAQRGPPPSGRPPARSTASGHDRPTRGAAAGARRPRMKKKTRRRSTRSEELTRSEELTLSEEATWSEEATQSEEATQGEEMNRSQEVTRDEESTRSEEVTREEMAAAGLTVTVTHSNEKHDLHVTSQQGSSEPVVQDLAQVVEEVIGVPQSFQKLIFKGKSLKEMETPLSALGIQDGCRVMLIGKKNSPQEEVELKKLKHLEKSVEKIADQLEELNKELTGIQQGFLPKDLQAEALCKLDRRVKATIEQFMKILEEIDTLILPENFKDSRLKRKGLVKKVQAFLAECDTVEQNICQETERLQSTNFALAE
notes: Untagged Bag-1L as the soluble partner in the test for dimerization; also called human Bag-1L; p50
binding result: no binding
